US6403769 (US Dept. of Health and Human Services, dated 2002)

Key:
D2/3-HFc fusion protein [1] = target: T1, D2/3-HFc fusion protein (mouse, UniProt P21803 22-262; P01868 98-324 = IgG part, limits assumed); test: 50% displacement of 125I-aFGF by unlabeled aFGF, fusion protein captured on Gamma Bind G (Scatchard analysis)
T1 construct: domain: Ig-like effector domains D2 and D3;domain: hinge, CH2 and CH3 domains; Secreted by NIH 3T3 transfectants as a disulfide-linked dimer (80 kd reduced, 160 kd nonreduced); Cloned into HFc-pUC 18 without the heterologous signal peptide; also called KGFR-HFc (D2/3)
Method: (§1) Ey et al., Immunochem. 15: 429 (1978). […] Bovine brain aFGF was obtained from Upstate Biotechnology, Inc. (Lake Placid, N.Y.). ^125I-aFGF was prepared as described by Friesel et al., J. Biol. Chem. 261: 7581 (1986).
(§2) Bound ligand recovered from the pellets was counted in a Beckman gamma counter. Specific binding was defined as the difference between binding in the absence or presence of excess unlabeled ligand.

D2-HFc fusion protein = target: T2, D2-HFc fusion protein (mouse, UniProt P21803 22-156; P01868 98-324 = IgG part, limits assumed); test: as above
T2 construct: domain: Ig-like effector domain D2;domain: hinge, CH2 and CH3 domains; Disulfide-linked dimer (55 kd reduced, 110 kd nonreduced); also called KGFR-HFc (D2)
Method: as §1, §2

α PDGFR = target: T3, α PDGFR (UniProt P16234 24-1089, limits assumed); test: Scatchard analysis
T3 construct: also called α PDGF receptor
T3 sequence (P16234 24-1089 limits assumed): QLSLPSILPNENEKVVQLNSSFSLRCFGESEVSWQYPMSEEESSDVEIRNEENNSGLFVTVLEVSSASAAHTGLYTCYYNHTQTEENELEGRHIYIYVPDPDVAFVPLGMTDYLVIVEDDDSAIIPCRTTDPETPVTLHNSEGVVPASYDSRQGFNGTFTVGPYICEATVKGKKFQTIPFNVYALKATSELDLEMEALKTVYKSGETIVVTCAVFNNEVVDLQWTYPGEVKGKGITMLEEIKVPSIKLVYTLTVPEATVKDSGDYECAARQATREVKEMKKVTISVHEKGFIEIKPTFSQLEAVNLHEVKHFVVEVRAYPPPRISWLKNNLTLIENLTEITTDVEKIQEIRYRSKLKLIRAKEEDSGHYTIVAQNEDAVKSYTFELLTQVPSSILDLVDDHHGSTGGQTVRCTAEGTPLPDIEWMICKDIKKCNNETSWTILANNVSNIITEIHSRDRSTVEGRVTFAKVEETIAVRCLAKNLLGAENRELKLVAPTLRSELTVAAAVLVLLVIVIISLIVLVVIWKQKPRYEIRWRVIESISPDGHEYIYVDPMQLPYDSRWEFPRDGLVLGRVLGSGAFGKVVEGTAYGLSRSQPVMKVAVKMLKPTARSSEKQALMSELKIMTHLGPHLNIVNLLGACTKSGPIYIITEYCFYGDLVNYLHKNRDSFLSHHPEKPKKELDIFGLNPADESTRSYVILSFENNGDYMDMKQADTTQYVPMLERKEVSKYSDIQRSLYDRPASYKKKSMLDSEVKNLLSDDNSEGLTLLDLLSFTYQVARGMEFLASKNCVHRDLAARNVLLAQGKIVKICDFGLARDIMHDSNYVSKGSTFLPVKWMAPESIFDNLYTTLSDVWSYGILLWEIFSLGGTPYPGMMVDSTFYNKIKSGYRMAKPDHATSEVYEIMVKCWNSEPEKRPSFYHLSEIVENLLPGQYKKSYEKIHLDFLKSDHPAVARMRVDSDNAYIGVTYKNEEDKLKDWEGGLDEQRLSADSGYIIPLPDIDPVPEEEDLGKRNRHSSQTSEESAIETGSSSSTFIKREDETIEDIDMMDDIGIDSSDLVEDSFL

β PDGFR = target: T4, β PDGFR (UniProt P09619 33-1106, limits assumed); test: Scatchard analysis
T4 construct: also called β PDGF receptor
T4 sequence (P09619 33-1106 limits assumed): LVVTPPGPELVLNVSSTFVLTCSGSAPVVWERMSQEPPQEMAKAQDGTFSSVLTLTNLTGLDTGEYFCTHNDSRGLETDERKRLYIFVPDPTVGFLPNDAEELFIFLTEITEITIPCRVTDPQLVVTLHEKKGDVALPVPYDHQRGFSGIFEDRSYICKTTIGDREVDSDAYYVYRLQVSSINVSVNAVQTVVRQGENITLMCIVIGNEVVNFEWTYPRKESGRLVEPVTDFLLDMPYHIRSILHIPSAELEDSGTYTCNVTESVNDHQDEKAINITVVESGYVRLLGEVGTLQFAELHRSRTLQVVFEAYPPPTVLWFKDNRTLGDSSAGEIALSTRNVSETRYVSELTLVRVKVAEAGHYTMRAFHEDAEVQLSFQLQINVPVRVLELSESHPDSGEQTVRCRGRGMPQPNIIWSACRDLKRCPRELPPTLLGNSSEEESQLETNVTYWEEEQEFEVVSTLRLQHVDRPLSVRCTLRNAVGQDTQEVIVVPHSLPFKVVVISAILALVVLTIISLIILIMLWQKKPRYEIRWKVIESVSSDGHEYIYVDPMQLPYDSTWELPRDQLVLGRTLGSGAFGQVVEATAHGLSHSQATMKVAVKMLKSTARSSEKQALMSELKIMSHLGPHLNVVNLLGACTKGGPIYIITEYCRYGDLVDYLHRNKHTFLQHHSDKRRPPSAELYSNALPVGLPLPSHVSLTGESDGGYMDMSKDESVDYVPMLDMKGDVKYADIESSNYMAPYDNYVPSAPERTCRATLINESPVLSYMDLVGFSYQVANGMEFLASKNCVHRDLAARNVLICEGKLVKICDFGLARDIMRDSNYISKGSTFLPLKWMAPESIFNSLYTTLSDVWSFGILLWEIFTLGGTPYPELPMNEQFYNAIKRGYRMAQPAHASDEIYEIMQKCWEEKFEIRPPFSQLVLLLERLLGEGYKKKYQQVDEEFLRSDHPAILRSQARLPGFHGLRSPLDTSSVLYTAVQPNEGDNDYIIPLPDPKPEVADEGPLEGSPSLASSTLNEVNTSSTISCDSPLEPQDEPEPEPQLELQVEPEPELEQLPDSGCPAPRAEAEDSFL

immunoglobulin HFc [2] = target: T5, immunoglobulin HFc (mouse, UniProt P01868 98-324 = IgG part); test: ELISA-like assay, 10 ng PDGF BB immobilized
T5 construct: domain: hinge, CH2 and CH3 domains; Control without a nonantibody portion; also called the HFc portion of IgG; control immunoglobulin HFc
Method: After a two hour incubation, wells were washed, and alkaline phosphatase substrate was added to the wells in 100 mM sodium bicarbonate (pH 9.8)-1 mM magnesium chloride. After another incubation, the presence of the product of the chromogenic substrate was measured at 405 nm using an ELISA reader.

immunoglobulin HFc [3] = target: T5, immunoglobulin HFc; test: immunohistochemistry on normal human skin
D2/3-HFc fusion protein [4] = target: T1, D2/3-HFc fusion protein; test: 50% displacement of 125I-KGF by unlabeled KGF, fusion protein captured on Gamma Bind G (Scatchard analysis)
Method: as §1, §2
The dissociation constant for each fusion protein was determined by measuring the concentrations of unlabeled ligand required for 50% displacement of radiolabeled ligand.

[5] = target: S. aureus protein A Sepharose CL-4B (S. aureus, UniProt P38507 37-477); test: precipitation of 35S-labeled conditioned medium
Method: Cells were incubated in the presence of radiolabeled amino acids to examine the expression of the fusion proteins. […] The immunoprecipitated proteins were then analyzed by SDS-polyacrylamide gel electrophoresis (PAGE) and immunoprecipitated species were visualized after fluorography.
Isolated proteins were analyzed using SDS-PAGE.

B1: bovine brain aFGF (ligand, UniProt P03968 16-155, looked up)
chain: FNLPLGNYKKPKLLYCSNGGYFLRILPDGTVDGTKDRSDQHIQLQLCAESIGEVYIKSTETGQFLAMDTDGLLYGSQTPNEECLFLERLEENHYNTYISKKHAEKHWFVGLKKNGRSKLGPRTHFGQKAILFLPLPVSSD
notes: also called radioiodinated bovine fibroblast growth factor (aFGF); 125I-aFGF
Q: B1 was tested. Which Kd (D2/3-HFc fusion protein [1]) did it give?
A: 0.52 nM

Q: What about the Kd (D2-HFc fusion protein) of the same binder?
A: 0.96 nM

B2: PDGF A-HFc fusion protein (Fc fusion)
chain: not shown
notes: Expressed as an 84-89 kd dimeric protein
Q: Which results are given for B2?
A: Kd (α PDGFR): 1.3 nM; binding result (β PDGFR): no binding

B3: PDGF BB (ligand, UniProt P01127 82-190, looked up)
chain: SLGSLTIAEPAMIAECKTRTEVFEISRRLIDRTNANFLVWPPCVEVQRCSGCCNNRNVQCRPTQVQLRPVQVRKIEIVRKKPIFKKATVTLEDHLACKCETVAAARPVT
notes: also called PDGF BB protein
Q: Does B3 bind (immunoglobulin HFc [2])?
A: no binding

B4: PDGF B-HFc fusion protein (Fc fusion, UniProt P01127 82-190, looked up)
chain: SLGSLTIAEPAMIAECKTRTEVFEISRRLIDRTNANFLVWPPCVEVQRCSGCCNNRNVQCRPTQVQLRPVQVRKIEIVRKKPIFKKATVTLEDHLACKCETVAAARPVTVPRDCGCKPCICTVPEVSSVFIFPPKPKDVLTITLTPKVTCVVVDISKDDPEVQFSWFVDDVEVHTAQTQPREEQFNSTFRSVSELPIMHQDWLNGKEFKCRVNSAAFPAPIEKTISKTKGRPKAPQVYTIPPPKEQMAKDKVSLTCMITDFFPEDITVEWQWNGQPAENYKNTQPIMNTNGSYFVYSKLNVQKSNWEAGNTFTCSVLHEGLHNHHTEKSLSHSPGK
notes: Expressed as an 84 kd dimeric protein
Q: What does the source list for B4?
A: Kd (α PDGFR): 3.2 nM; Kd (β PDGFR): 1.4 nM

B5: keratinocyte growth factor (KGF) (ligand, human, UniProt P21781 32-194, looked up)
chain: CNDMTPEQMATNVNCSSPERHTRSYDYMEGGDIRVRRLFCRTQWYLRIDKRGKVKGTQEMKNNYNIMEIRTVAVGIVAIKGVESEFYLAMNKEGKLYAKKECNEDCNFKELILENHYNTYASAKWTHNGGEMFVALNQKGIPVRGKKTKKEQKTAHFLPMAIT
notes: also called recombinant human KGF; recombinant KGF
Q: Does B5 bind (immunoglobulin HFc [3])?
A: no binding

Q: What about the Kd (D2/3-HFc fusion protein [4]) of the same binder?
A: 0.12 nM

B6: KGF-HFc fusion protein (Fc fusion, UniProt P21781 32-194, looked up)
chain: CNDMTPEQMATNVNCSSPERHTRSYDYMEGGDIRVRRLFCRTQWYLRIDKRGKVKGTQEMKNNYNIMEIRTVAVGIVAIKGVESEFYLAMNKEGKLYAKKECNEDCNFKELILENHYNTYASAKWTHNGGEMFVALNQKGIPVRGKKTKKEQKTAHFLPMAITVPRDCGCKPCICTVPEVSSVFIFPPKPKDVLTITLTPKVTCVVVDISKDDPEVQFSWFVDDVEVHTAQTQPREEQFNSTFRSVSELPIMHQDWLNGKEFKCRVNSAAFPAPIEKTISKTKGRPKAPQVYTIPPPKEQMAKDKVSLTCMITDFFPEDITVEWQWNGQPAENYKNTQPIMNTNGSYFVYSKLNVQKSNWEAGNTFTCSVLHEGLHNHHTEKSLSHSPGK
notes: Disulfide-linked dimer, p94-98 nonreduced, 48 kd reduced
Q: Does B6 bind [5]?
A: binds
